From the nanobody polyreactivity screen of Harvey et al. (2022)

Assay: yeast display, Sf9 membrane polyspecificity reagent, FACS + sequencing; frameworks hold sequencing errors
In short: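 Polyreactivity labels are assigned by the sorting gate from which each nanobody was recovered. The gates were low and high (top ~1%), set on anti-HA fluorescence for expression and streptavidin fluorescence for reagent binding. Before sorting, galactose-induced (36–48 hours) yeast display cells were stained for 1 hour at 4 °C with 10% biotinylated, detergent-solubilized Sf9 membrane reagent.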

Sequence	polyreactivity (PSR sort gate)
QVQLVESGGVLVQAGCSLRLSCASSGITFKYYAMGRYSQAPGKEREFVAYISARGGGTYYADSVKGRFTISRDNAKNSVYLQMNSLKPEDYAVYYFNAGLIYHQLYSNLYDYWGQGTQVTVSS	high polyreactivity
QVQLVESGGGLVQAGGSLRLSCAASGSISGYYAMGWNRQAPGKERELVASIRYTGARTYYADSVKGRFTISRDNAKNTVYLQMNSLKPEDTAVYYCAADVKRDRVWGGDYWGQGTQVTVSS	low polyreactivity
QVQLVESGGGLVQAGGSLRLSCAASGSIFRRYAMGWYRQAPGKERELVASITSSVGRTYYADSVKGRFTISRDNAKNTVYLQMNSLKPEDTAVYYCAVYVGRWGAGGKGDYWGQGTQVTVSS	low polyreactivity
QVQLVESGGGVVQAGGSLRLSCAASGRIFYGNAMGWYRQAPGKERELVAAISSGTSTNYADSVKGRFTISRDNAKNTVYLQMTSLKPEDTAVYYCAAGSYSRYLYSLYFDFDYWGQGTQVTVSS	low polyreactivity
QVQLVESGGGLVQAGGSLRLSCAASGSIFDYYGMGWYRQAPGKERELVARITKRGGSTYYADSVMGRFTISRDNAKNTVYFQMNSLKPEDTAVYYCAAVVAYLFSGRGYRYNYWGQGTQVTLSS	high polyreactivity
QVQLVESGGGLVQAGGSLRLSCAPSGRIFWFNMGCYRQAPGKERELVAAINSGGRTNYADSVKGRFTISRDNAQNTVYLQMNSLKPEDTAVYYCNARYYQVRRWYHYDYSGQGTQVTVSS	high polyreactivity
QVQLVESGGGLVQAGGSLRLSCAASGSTLQGYAMGWYRQAPGKERELVAAISRSGGSTYYADSVKGRFTISRDNAKNTVYLQMNSLKPEDTAVYYCNRVAGGRRKGPWSYQYDYWGQGPQVTVSS	high polyreactivity
QVLLVESGGGLVQAGGPLRLSCAASGFIIRTNAMGWYREEPGKERELDAAISRRGRTDYADSVKGRFTISRDNAKNTVYLQMKSLTPEESAVYYCNAYYAIQDSVHRYYFWGQGTQGTVSS	high polyreactivity
QVQLVESGGGLVQAGGSLRLSCAASGSTGVNTMGWYRQAPGKERELVAAIRATGGSTYYADSVKGRFTISRDNAKNTVYLQMNSLKPEDTAVYYCAARYYRSQYWYDDSWGQGTQVTVSS	high polyreactivity
QVQLVESSGGLVQAGGSLRLSCAASGLTFDGYAMGWYRQAPGKEREIVAAITQSGGSTYYADSVKGRFTISRDNAKNTVYLQMNSLKPVDTAVYYCAADGVLIHISYFRVVDGGEDHWGQGTQVNVSS	low polyreactivity
QVQLVESGGGLVQAGGSLRLSCAASGSTFQYYDMGWYRQAPGKERELVASITGSGDSTYYADSVKGRFTISRDNAKNTVYLQMNSLKPEDTAVYYWGQGTQVTVSS	low polyreactivity
QVQLVESGGGLVPAGGSLRLSCAASGRTFYYYAMGWYRQAPGKERELVAAIRRSGSSTYYADSVKGRFTISRDNAKNTVYLQMNSLKPEDTAVYYCAARPRRPRSNYWGQGTQVSVSS	high polyreactivity
QVQLVESGGGLVQAGGSLRLSCAASGRIFGGYAMGWYRQAPGKERELVAGIRSGGSTYYADSVKGRFTISRDIAKNTVYLQINSLKPEDTAVYYCNARLYFWNRYTYSQNNYWGQGTQVTVSS	high polyreactivity
QVQLVESGGGLVQAGGSLRLSCAASGSTFFIYAMGWYRQAPGKERELVAVIRNIDVRTYYADSVKGRFTISRDNAKNTVYLQMNSLKPEDTAVYYCAADELLDESVDMYYWGQGTQVTVSS	low polyreactivity
QVQLVESGGGLVQAGGSLRLSCAASGSIFYGYAMGWYRQAPGKERELVAAISSSGGTTYYADSVKGRFTISRDNAKNTVYLQMNSLKPEDTAVYYCAALGGYYYRTRYNGDYWGHGTQVTVSS	high polyreactivity
QVQLVESGGGLVQAGGSLRLSCAASGSIIYRYAMGWYRQARGKERELVAAISTTGGRTYYADSVKGRFTISRDNAKNTVYLQMNSLKPEDTAVYYCNTYGSGTHSTGYDYWGQGTQVTVSS	low polyreactivity
QVQLVESGGGLVQAGGSLRLSCAASGLTFYHYAMGWYRQAPGIERELVAAISYSGSRTYYADSVKGRFTISRDTAKNTVYLQMNSLKPEVTAVYYCAAKRTKEYDYWGQGTQVTVSS	high polyreactivity
QVQLVESGGGLVHAGGSLRLSCAASGRIFATNVMGWYRQAPGKETEMVAAISRSGASTYYADSVKGRFTISRDNAKTSVYLQMNSLKPEDTAGYYCADRRFYYGDRYDYWGQGTQVTVSS	high polyreactivity
QVQLVESGGGLVQAGGSLRLSCAASGLTFRWYAMGWYRRAPGKERELVAAISSGGSTNYADSVKGRFTISRDNAKNTVYLQMNSLKPEDTAVYYCNAKGRPWFKYDYWGQGTQVTVSS	high polyreactivity
QVQLVESGGGLVQAGGSLRLSCAASGFIFIRYAMGWYRQAPGKERELVAAISASGVRTYYADSVKGRFTISRDNAKNTVYLQMNSLKPEDTAVYYCAVCSAWVYGIGRYYWGQGTQVTVSS	high polyreactivity
QVQLVESGGGLVQAGGSLRLNCAASGRSFQSYAMGWYRTAPGKERELVAAITWSGGDTYYADSVKGRFTISRDNAKNTVYLQMNSLKPEDTAVYYCAKEQGLYSVSPYDYWGQGTQVTVSS	low polyreactivity
QVQLVESGGGLVQAGGSLRLSCAASGSIFEAYAMGWYRQAPGKERELVAAITTAGGSTYYADSVKGRFTISRDNAKNTVYLQMNSLKPEETAVYYCARDYGKYKGYYWGQGTQVTVSS	low polyreactivity

Sequence	polyreactivity (PSR sort gate)
QVQLVESGGGLVQAGGSLRLSCAASGSIFLYNDMGWYRQAPGKERELVAAITSTGNTNYADSVKGRFTISRDNAKNTVYLQMNSLNRKIPRSITALNVSCTSVVVGYDYWGQGTQVTVSS	low polyreactivity
QVQLVESGGGLVQAGGSLRLSCAASGRIFYGYAMGWYRQAPGKEREFVAAITSGGRTYYADSVKGRFTISRDNAKNTVYLQMNSLKPEDTAVYYCAAAQYYRYGYWGQGTQVTVSS	high polyreactivity
QVQLVESVGGLVQAGGSLRLSCAASGSIFVTYAMGWYRQAPGKERELVAVITWGGGSTYYADSVKGRFTISRDNAKNTVYLQMNSLIPEDTAVYYCAKDSYYYRRDVNVDYWGQGTQVTVSS	low polyreactivity
QVLLVESAAGLVQAGGSLRLSCAASGSTFQGNAMGGYRKAPGKERELVAAISRSGGSTYADSVKGRFTISRDNAKNTVYLQLNSLKPEDTAVYYCAAYSGVGYLWFDYWGQGTQVTVSS	low polyreactivity
QVQLVESGGGLVQAGGSLRLSCAASGSIFRDYAMGWYRQAPGKEMELVAAISSDGSTYYADSVKGRFTISRDNAKNTVYLQMNSLKPEDTAVYYCNAAHVAHRFIGYTRWNYYYWGQGTQVTVSS	high polyreactivity
QVQLVESGGGLVQAGGSLRLSCAASGSTFSYNAMGWYRQAPGKERELVAAISWRGGRTYYADSVKGRFTISRDNAKNTVYLQMYSLKPEDTAVYYCAAAYAAYSRYRYDYWGQGTQVTVSS	high polyreactivity
QVQLVESGGGLVQAGGSLRLSCAASGFIFDGYTMGWYRQAPGKERELVAAISRSGGRTYYADSVKGRFTISRDNAKNTVYLQMNSLKPEDTAVYYCAVRYRQYSQTVASDYGYWGQGTQVTVSS	high polyreactivity
QVQLVESGGGLVQAGFSLRLSCAASGSIFDYYTMGCYRQAPGKERELVATIRSGDSTNYADSVKGRFTISRDNAKNTVYLQMNSLKPEDTAVYYFAADDGAYPTLYDYWGQGTQVTVSS	low polyreactivity
QVQLVESGGGLVHAGGSLRLSCAASGFIFKFYAMGWYRQAPGKERELVAAISKSGGRTYYADSVKGRFTISRDNAKNTVYLQMNSLKPEDTAVYYCNAPSVGAAFDYWGQGTQVTVSS	high polyreactivity
QVQVVESGGGLVQAGGSLRLSCAASGSTFQYYAMGWYRQAPGKEREFFAAITWSGGRTYYADSVKGRFTISRDNAKNTVYLQMKSLKPEDTAVYYCAADIDGVWIPYEYDYWGQGTQGTVSS	low polyreactivity
QVQLVESGGGLVQAGGSLRLSCAASGRILRYNAMGCDRQAPGKERELVASISGNGGSTYYADSVKGRFTISRDNAKNTVYLQMNSLKPEDTAVYYCNKYSYSSRGQKEYDYWGQGTQVTVSS	low polyreactivity
QVQLGESGGCLGQAGGSLRLSCAASGYTFPYNVMGWYRQAPGKERELDAAITSSGGSTYYADSVKGRFTISRDNAKNTVYLQMNRLKPEDTAVYYCNAYPSSSLFDYWGQGTQVTVSS	low polyreactivity
QVQLLESGGGLVQPGGSLRLSCAASGRTFRLNGMGWNRQAPGKERELVAAITWSGGRTYYADSVKGRFTISRDNAKKTVYVQMNSLTPEDTAVYYCAADFRDGFTSRYGYWGQGTQVTVSS	high polyreactivity
QVQLVESGGGLVQAGGSLRLSCAASGFTSRYYAMGWYRQAPGKERELVAAISSSGGRTYYADSVKGRFTISRDNAKNTVYLQMNSLKPEDTAVYYCNTGIHARYGGLYGYWGQGTQVTVSS	high polyreactivity
QVQLVESGGGLVQAGGSLRLSCAASGSIRYYVKGWYRQAPGKERELVAGINWSGGSTYYADSVKGRFTISRDNAKNTVYLQMNSLKPEDTAVYYCAARFVGVRDGYYYWGQGTQVTLSS	high polyreactivity
QVQLVESAGGLFQAGGSLRLSCAASGRIFGWNAMGWYIQATGKESELDAVITSGGITYYADSVKGRFTISPDNAKNTVCLQMISLKPEDTAVYYCAARGTEFYTYYRYYYWGQGTKVTVSS	high polyreactivity
QVQLVESGGGLVQAGGSLRLSCAASGFTFPDYAMGWYRQAPAKERELVAAISSDGSTYYADSVNGRFTISRDNAHNTVYLQMNSLKPEDTAVYYCAAYVVWLYGYDYWGQGTQVTVSS	low polyreactivity
QVQLVESGGGVVQAGGSLRLSCAASGITFGWDAMGWYRQAPGKERELVASISSSGSTNYADSVKGRFTISRDNAKNTVYLQMNSLKPEDTAVYYCNKDYLLRHYYIYVIEGDYWGQGTQVTVSS	low polyreactivity
QVQLQESGGGLVQAGGSLRLSCAASGTISEDDWSGWYRQAPGKERELVAAIGLGSNTNYADSLKGRFPISRDNAKNTVYLQMNSLKPEDTAVYYSAVSVWQYSDNVYRGQGTQVTVSS	low polyreactivity
QVQLVESGGGLVQAGGSLRLSCAASGFIFYYYAMGWYSQAPGKERELVARISRGGSTYYADSVKGRFTISRDNAKNTVYLQMNSLKPEDTAVYYCAKVSIARIKTRYNYWGQGTQVTVSS	high polyreactivity
QVQLVESGGGLVQAGGSLRLSCAASGNTFAVNAMGWYRQAPGKERELVAAISRSGVTTRYADSVKGRFTISRDNAKNTVYLLMNSLKPEDTAVYYCNADPRLRQTRDYWGQGTQVTVSS	high polyreactivity
